From patent publication US7943356B2, “Alcohol dehydrogenase for the stereoselective production of hydroxy compounds” (Codexis, Inc., priority 2004, dated 2011) come the findings set out here.

One data set relates to ADH T. The data set is described as follows: Relative activities of purified ADH T in the reduction of different substrates. The data set is classed as biochemical, Thermoanaerobacter species.
A short description of data set [1]: Activity with standard substrate acetone (photometric NADPH decrease). In kind it is biochemical. The settings on record: acetone (10 mM); ADH T 1.5 mg/ml, ADH-TE 2.45 mg/ml; ADH-TE batch also 1 mM MgCl2. Here is the method: (§1) The comparison of the activity of the ADH T with that of the secondary alcohol dehydrogenase from Thermoanaerobacter ethanolicus 39E (U.S. Pat. No. 5,908,924) with regard to the conversion of diketones is interesting (Table 6).
(§2) The activities were determined by photometric measurement of the decrease in the cofactor. Measurement batch: 50 mM Tris-Cl, pH 7.0 with 10 mM substrate and 0.2 mM NADPH. The measurement batch for ADH-TE also contained 1 mM of MgCl2.
(§3) The decrease in NADPH was followed at 340 nm for one minute after addition of the enzyme. Sufficient enzyme was added for the activity to be between 0.5 and 1.5 U/ml and the measurement volume was 1 ml.
(§4) 1 U corresponds to the quantity of enzyme which converts 1 μmol of substrate per minute.

Data set [2] in a line: Reduction of 2,5-hexanedione to the diol, conversion and ee/de. The data set is classed as biochemical. The note with it: after 48 hrs. The source says: The ee/de value of 100% signifies absolute enantiomeric and diastereomeric purity of the diols prepared. By means of the invention described here, the ADH T can for the first time be obtained in sufficient quantity to produce enantiomerically pure diols on the kilogram scale.

A short description of data set [3]: Activity with diketone 2,4-pentanedione (photometric NADPH decrease). In kind it is biochemical. Here is the method: as §1, §2, §3, §4
A short description of data set [4]: Activity of the isolated ADH T at different pH values. The data set is classed as biochemical. The procedure: The activities were determined by photometric measurement of the decrease in the cofactor. […] The measurement batch for ADH-TE also contained 1 mM of MgCl2.
as §3, §4

Data set [5] in a line: Thermal stability of ADH T. The data set is classed as physicochemical. The note with it: after 12 hrs at 50° C. Here is the method:
The thermal stability is also very good. The activity of the ADH T was still at 75% of the starting value even after 12 hrs at 50° C.

Data set [6] can be described thus: Conversion of 2-pentanone with substrate-coupled cofactor regeneration (isopropanol). The data set is classed as biochemical. The settings on record: 200 mM 2-pentanone, 3 U/ml ADH T, 0.05 mM NADP. The text has this:
In fact, it can be shown that the enantioselectivity in the reduction of critical ketones such as 2-pentanone or 2-butanone by substrate-coupled cofactor regeneration with isopropanol is also far better than with the use of enzyme-coupled cofactor regeneration.
Also, the achievable enantiomeric purity of the product depends on the quantity of isopropanol used (Table 9).

A short description of data set [7]: Storage stability of the isolated ADH T (residual activity). The settings on record: for Activity Day 5 / Activity Day 10 / Activity Day 20 / Activity Day 40 / Activity Start: storage at 4° C. The data set is classed as physicochemical. Here is the method:
In spite of its thermal stability, the isolated ADH T cannot be stored for long under standard conditions (50 mM Tris-Cl, pH 7.0). The half-life is only ca. 4 days. By addition of e.g. NaCl, the half-life can be increased to more than 40 days (Table 2).
as §2, §3, §4

A short description of data set [8]: Activity with diketone 2,5-hexanedione (photometric NADPH decrease). The data set is classed as biochemical. Here is the method:
as §1, §2, §3, §4

Setting [9] is: substrate 10 mM, activity with acetone set at 100%, purified ADH T.
The mark [10] stands for this setting: substrate 10 mM, activity with acetone set at 100%, […].
[11] abbreviates: relative to standard substrate acetone (10 mM).

Read-outs that look alike come from different tables or passages of the source.

Turning to `CCC(=O)C(=O)O` [2-oxobutyric acid], in the data set with ADH T (setting [9]), the Relative activity was found to be 28%.

With `CC(=O)c1ccccn1` [2-acetylpyridine], the Relative activity with ADH T (setting [9]) was 36%.

With `CC(=O)CC(C)=O` [2,4-pentanedione], the Relative activity with ADH T (setting [9]) is 77%.

For the molecule `CCCCCCC(C)=O` [2-octanone], the Relative activity in the data set with ADH T (setting [9]) is 9%.

For `CCCC(C)=O` [2-pentanone], the Relative activity in the data set with ADH T (setting [9]) was found to be 31%.

For `CC(C)=O` [Acetone], the Relative activity with ADH T (setting [10]) was found to be 100%.

As to `CC(=O)CCO` [4-hydroxy-2-butanone], the Relative activity in the data set with ADH T (setting [10]) stood at 13%.

Take Monochloroacetone: in the data set with ADH T, the Relative activity is reported as 71%.

Consider `O=C(CCl)c1ccccc1` [Phenacyl chloride], for which the Relative activity in the data set with ADH T (setting [10]) stood at 25%.

Turning to `CCOC(=O)CC(=O)CCl` [Ethyl 4-chloroacetoacetate], the Relative activity in the data set with ADH T (setting [10]) worked out at 45%.

On to `CC(=O)c1ccccc1` [Acetophenone], for which the Relative activity in the data set with ADH T (setting [9]) was found to be 28%.

For the molecule `O=C1CCCCC1=O` [1,2-cyclohexanedione], in the data set on ADH T (setting [9]), the Relative activity is given as 5%.

In the case of `CC(=O)c1ccc(Cl)cc1` [p-chloroacetophenone], the Relative activity with ADH T (setting [10]) stood at 17%.

As for `CC=O` [Acetaldehyde], the Relative activity in the data set on ADH T (setting [10]) is recorded as 101%.

As for `C#CC(C)=O` [3-butyn-2-one], the Relative activity with ADH T (setting [10]) is 76%.

In the case of `CCOC(=O)CC(C)=O` [Ethyl acetoacetate], the Relative activity in the data set on ADH T (setting [9]) stood at 22%.

As for `CCCCCC(=O)CC` [3-octanone], the Relative activity with ADH T (setting [9]) came out at 26%.

As to `CCCCC(C)=O` [2-hexanone], the Relative activity in the data set on ADH T (setting [10]) turned out to be 30%.

As for `CC(=O)CCCl` [4-chloro-2-butanone], the Relative activity with ADH T (setting [10]) came to 66%.

Take `CC(=O)CCC(C)=O` [2,5-hexanedione]: the Relative activity in the data set on ADH T (setting [9]) stood at 74%.

Regarding `CCC(C)=O` [2-butanone], the Relative activity in the data set on ADH T (setting [10]) is given as 72%.

In the case of `CC(=O)C(C)=O` [Diacetyl], the Relative activity in the data set with ADH T (setting [9]) is on record as 154%.

With `CCC(C)C=O` (stereo not shown) [2-methylbutyraldehyde], the Relative activity with ADH T (setting [9]) is given as 52%.

B1: ADH T: thermally stable, (S)-selective NADP-dependent alcohol dehydrogenase from Thermoanaerobacter species (SEQ ID NO: 2), recombinant (protein)
chain: MKGFAMLSIGKVGWIEVEKPNPGPFDAIVRPLAVAPCSSDIHTVFEGGLGELHNAVLGHEAVGEVVEVGSEVKDFKPGDKVVIPAITPDWRTLDVQRGYHQQSGGMLAGYKFTAQKPGVFAEYIYVNDADMNLAHLPDGISLEAAVMITDMMTTGFHGAELAEIELGATVAVLGIGPVGLMAVAGAKLRGAGRIIAVGSRPVCVDAAKYYGATDIVNYKNGPIDSQIMDLTKGKGVDAAIIAGGNVDIMATAVKIVKPGGTIANVNYFGEGDVLPVPRLEWGCGMAHKAIKGGLCPGGRLRMERLIDLVFYKRVDPSKLVTHVFQGFDNIEKALMLMKDKPKDLIKPVVILA
modifications: Thermoanaerobacter species
For the molecule B1, the “activity with standard substrate” value in [1] is reported as 106 U/ml. Further, the Conversion to diol in data set [2] (enzyme-coupled) is on record as 82.4%; in data set [2] (substrate-coupled), 10.6%. In addition, the “ee/de for the (S,S) enantiomer” value in data set [2] (enzyme-coupled) and in data set [2] (substrate-coupled) was 100% in each case. Moreover, the spec. activity is recorded as 55.4 U/mg in data set [3] and 52.7 U/mg in data set [8]. The rel. activity in data set [3] (setting [11]) was found to be 77%; in data set [8] (setting [11]), 74%. For the same molecule, the pH optimum in data set [4] is 7.0. Besides, the Measured activity was determined as 53 U/ml in data set [4] (pH 5.0); 134 U/ml in data set [4] (pH 6.0); 192 U/ml in [4] (pH 7.0); 146 U/ml in data set [4] (pH 8.0); 13 U/ml in data set [4] (pH 9.0). Moreover, the Relative activity in data set [4] (pH 6.5) amounted to 66%; in data set [4] (pH 7.0) it was 100%; in [4] (pH 7.5), 74%. The “activity remaining, of the starting value” in [5] was 75%. In addition, the Conversion came out at 85.3% in [6] (100 mM Tris-Cl pH 7.0, 20% isopropanol, 24 hours); 86.5% in [6] (100 mM Tris-Cl pH 7.0, 20% isopropanol, 48 hours); 93.8% in [6] (100 mM Tris-Cl pH 7.0, 50% isopropanol, 24 hours); 94.2% in [6] (100 mM Tris-Cl pH 7.0, 50% isopropanol, 48 hours). Besides, the “Activity Day 5” value is listed as 24 U/ml in data set [7] (0.0 M NaCl), 101 U/ml in [7] (0.2 M NaCl), 113 U/ml in [7] (0.5 M NaCl) and 115 U/ml in [7] (1.0 M NaCl). The “Activity Day 10” value in [7] (0.0 M NaCl) worked out at 6 U/ml; in [7] (0.2 M NaCl), 7 U/ml; in data set [7] (0.5 M NaCl), 86 U/ml; in data set [7] (1.0 M NaCl) it was 119 U/ml. Further, the “Activity Day 20” value in data set [7] (0.0 M NaCl), in [7] (0.2 M NaCl) and in [7] (0.5 M NaCl) was 0 U/ml throughout. In addition, the “Activity Day 40” value is listed as 0 U/ml in data set [7] (0.0 M NaCl), 0 U/ml in [7] (0.2 M NaCl), 0 U/ml in data set [7] (0.5 M NaCl) and 78 U/ml in data set [7] (1.0 M NaCl). Besides, the “Activity Start” value in data set [7] (0.0 M NaCl), in data set [7] (0.2 M NaCl), in data set [7] (0.5 M NaCl) and in [7] (1.0 M NaCl) was 105 U/ml in each case. The “duration of high stability on storage” value in data set [7] (storage at −20° C. with addition of glycerine, in particular 50%) was “at least 3 months”. For the same molecule, the “effect of addition of zinc ions to the prepared enzyme” value in data set [7] (zinc ions added to prepared enzyme) is reported as “leads rapidly to its inactivation”.
